The target in data set [1] is T1, mYOX1 (Naegleria gruberi) (UniProt D2W6T1).
T1 sequence: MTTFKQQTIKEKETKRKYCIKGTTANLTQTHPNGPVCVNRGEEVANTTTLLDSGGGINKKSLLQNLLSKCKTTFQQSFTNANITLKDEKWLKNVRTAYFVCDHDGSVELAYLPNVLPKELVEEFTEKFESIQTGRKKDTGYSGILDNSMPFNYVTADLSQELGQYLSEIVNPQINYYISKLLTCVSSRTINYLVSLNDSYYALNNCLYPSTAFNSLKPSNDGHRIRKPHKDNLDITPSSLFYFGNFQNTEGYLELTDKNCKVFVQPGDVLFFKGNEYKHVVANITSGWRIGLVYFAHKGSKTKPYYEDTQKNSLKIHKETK
The following applies: LC-MS after NaBH4 reduction and T4-BGT, caC 29.3%, ghmC 67.7%, mC 3.0%.

In data set [2] the target is T1, mYOX1 (Naegleria gruberi). The settings on record: LC-MS, 20 uM mYOX1, Bis-TRIS pH 6.0, Fe(II), alpha-ketoglutarate.

Where two headings read alike, the source gives them in different places.

Turning to MG1655 genomic DNA, the activity (% 5mC oxidized) in data set [1] came out at 97. The substance IMR90 genomic DNA had an activity (% 5mC oxidized) in data set [2] (caC 89.1%, hmC 1.7%, fC 8.7%, mC 0.5%) of 99.5.

For pTXB1-M.SssI plasmid, in data set [2] (caC 91.2%, hmC 1.8%, fC 5.9%, mC 1.0%), the activity (% 5mC oxidized) was found to be 99.

The values above are taken from patent publication US20140127683.
